Data taken from publication PMC2164975.

Molecular target: GST-QM fusion protein, full-length QM (human) (UniProt P27635)
Experiment: pull-down

ratio between the input and the pulled-down amounts: 95%
Substance: normal full-length PS1, in vitro translated and radiolabeled with [35S]methionine (from UniProt P49768 1-467) (natural protein)
